Data on two molecules can be found in publication PMC10932109, “Solution Structures of Two Different FRP-OCP Complexes as Revealed via SEC-SANS” (International Journal of Molecular Sciences, 2024).

Data set [1] addresses OCPR (Synechocystis sp. PCC 6803) (UniProt P74102). The settings on record: cited from earlier work.
In data set [2] the target is OCPO (Synechocystis sp. PCC 6803) (UniProt P74102). The settings on record: cited from earlier work.
Data set [3] addresses T1, orange carotenoid protein lacking the N-terminal extension (^∆NTEOCP^O) (Synechocystis sp. PCC 6803, UniProt P74102 13-317).
T1 construct: glycine left from the human rhinovirus 3C protease site (LEVLFQ/GP) after cleavage; the P of GP is read as Pro13 of OCP; Orange carotenoid protein (OCP), Synechocystis sp; PCC 6803, slr1963, from Pro13 (P-NTLAA...) to the C-terminus; the N-terminal extension is removed with the His-tag by 3C cleavage; Gene optimised for E. coli, vector pRSFDuet-1; also called ^ΔNTEOCP^O; compact mutant of OCP …
T1 sequence: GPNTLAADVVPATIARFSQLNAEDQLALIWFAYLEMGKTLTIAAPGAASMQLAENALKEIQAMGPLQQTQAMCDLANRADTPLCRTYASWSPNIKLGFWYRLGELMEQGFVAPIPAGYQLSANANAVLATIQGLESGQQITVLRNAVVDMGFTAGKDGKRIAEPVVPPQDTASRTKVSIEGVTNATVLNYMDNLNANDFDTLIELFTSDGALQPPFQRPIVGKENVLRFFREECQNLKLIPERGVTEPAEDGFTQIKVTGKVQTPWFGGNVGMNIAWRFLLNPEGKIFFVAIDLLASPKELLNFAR
Nature of the data set: SEC + other: SANS; in-line SEC-SANS at D22 (ILL); Superdex 200 Increase 10/300 GL; 25 °C; 250 µL injected at about 5 mg/mL total protein; two fractions (high MW, low MW) analysed separately; stoichiometries assigned from dimensions, DAMMIF shapes and Pepsi-SANS FlexFit models. The note with it: both partners purified.

Data set [4] deals with the molecule itself. The data set is described as above.

Where “and” joins values, the source holds several entries; their conditions need not be identical. Equal values may be shown once.

With FRP (from UniProt P74103), the Kd – broadly, the equilibrium constant for the complex coming apart – is 3 µM in data set [1] and 35 µM in data set [2].

B1: fluorescence recovery protein (FRP), wild type (natural protein, Synechocystis sp. PCC 6803)
chain: LQTAEAPWSQAETQSAHALFRKAYQRELDGLLATVQAQASQITQIDDLWKLHDFLSAKRHEIDGKYDDRQSVIIFVFAQLLKEGLVQAEELTFLAADKQSKIKALARL
notes: Fluorescence recovery protein (FRP), Synechocystis sp; PCC 6803, slr1964, wild type; also called wild-type FRP; dimeric FRP; source: E. coli, purified (Superdex 200 Increase 10/300, phosphate-buffered saline)
For B1, the stoichiometry N (commonly the number of molecules, sites or subunits per partner or assembly) in data set [3] was 2 FRP per ^∆NTEOCP^O (2:1 complex, low MW fraction) and 1 FRP per ^∆NTEOCP^O (2:2 complex, high MW fraction). The binding result in data set [4] was “binds”.
